Experimental data taken from patent publication US20090215075A1, “THREE-DIMENSIONAL STRUCTURE OF A DNAB-FAMILY R[…] (G40P), USES THEREOF, AND METHODS FOR […]-BACTERIAL PATHOGENS BY […] HELICASES AND THE INTERACTIONS OF DNAB HELICASE WITH PRIMASE” (priority 2007, published 2009).

T1: B. subtilis DnaG primase (Bacillus subtilis, UniProt P05096 1-603, limits assumed)
T1 construct: Recombinant
T1 sequence (looked up): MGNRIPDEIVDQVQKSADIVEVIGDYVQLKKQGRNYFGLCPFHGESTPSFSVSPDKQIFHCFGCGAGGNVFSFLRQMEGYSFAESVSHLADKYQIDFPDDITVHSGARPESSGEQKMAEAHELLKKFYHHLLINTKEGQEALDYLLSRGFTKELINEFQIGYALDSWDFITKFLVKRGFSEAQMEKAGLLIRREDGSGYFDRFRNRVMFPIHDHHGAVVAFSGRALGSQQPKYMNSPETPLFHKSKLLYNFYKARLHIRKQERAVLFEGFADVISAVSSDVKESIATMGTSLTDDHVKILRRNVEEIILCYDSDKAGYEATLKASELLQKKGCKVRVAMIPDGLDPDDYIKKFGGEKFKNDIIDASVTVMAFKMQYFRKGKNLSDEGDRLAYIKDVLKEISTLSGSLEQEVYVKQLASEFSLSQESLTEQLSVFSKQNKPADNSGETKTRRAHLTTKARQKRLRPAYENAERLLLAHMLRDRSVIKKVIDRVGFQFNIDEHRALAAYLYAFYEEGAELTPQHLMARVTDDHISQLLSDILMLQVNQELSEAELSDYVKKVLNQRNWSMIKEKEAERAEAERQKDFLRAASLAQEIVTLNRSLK

B1: B. subtilis DnaG primase (protein)
chain: T1 sequence (looked up)
B2: G40P N-terminal fragment N171 (other)
chain: MNPEEKTVMLYNEYAEQAVLGSILTEPELIKECPLTPEHFSPGKHFNIYFTMQDLDRKGQSVDFTSIAARVGEKLPQLGGFGYLTELAASVASTTTFKQHCQTVSEYFQKRKAISIAQQIIENVNESDDGPVKPIQEAVSELMEIEASGTDDDDGSIDEALVTVYEEIESA
notes: Contains only the N-globe and α-hairpin domains; Limits inferred from the name; Behaved like a monomer in gel filtration
B3: G40P N-terminal deletion mutant ΔN108 (enzyme)
chain: QKRKAISIAQQIIENVNESDDGPVKPIQEAVSELMEIEASGTDDDDGSIDEALVTVYEEIESADGNITGVPSGFTELDRMTYGYKRRNFVLIAARPSMGKTAFALKQAKNMSDNDDVVNLHSLEMGKKENIKRLIVTAGSINAQKIKAARRDFASEDWGKLSMAIGEISNSNINIFDKAGQSVNYIWSKTRQTKRKNPGKRVIVMIDYLQLLEPAKANDSRTNQISQISRDLKKMARELDVVVIALSQLSRQVEQRQDKRPMLSDLRESGQLEQDADIIEFLYRDDYYDKESESKNIVEVIIAKHRDGPVGTVSLAFIKEYGNFVNLERRFDDR
notes: Limits inferred from the name, by analogy with ΔN129 = residues 130-442; Forms hexamers in gel filtration
B4: G40P N-terminal fragment N149 (other)
chain: MNPEEKTVMLYNEYAEQAVLGSILTEPELIKECPLTPEHFSPGKHFNIYFTMQDLDRKGQSVDFTSIAARVGEKLPQLGGFGYLTELAASVASTTTFKQHCQTVSEYFQKRKAISIAQQIIENVNESDDGPVKPIQEAVSELMEIEASG
notes: as for B2
B5: G40P N-terminal deletion mutant ΔN92 (enzyme)
chain: STTTFKQHCQTVSEYFQKRKAISIAQQIIENVNESDDGPVKPIQEAVSELMEIEASGTDDDDGSIDEALVTVYEEIESADGNITGVPSGFTELDRMTYGYKRRNFVLIAARPSMGKTAFALKQAKNMSDNDDVVNLHSLEMGKKENIKRLIVTAGSINAQKIKAARRDFASEDWGKLSMAIGEISNSNINIFDKAGQSVNYIWSKTRQTKRKNPGKRVIVMIDYLQLLEPAKANDSRTNQISQISRDLKKMARELDVVVIALSQLSRQVEQRQDKRPMLSDLRESGQLEQDADIIEFLYRDDYYDKESESKNIVEVIIAKHRDGPVGTVSLAFIKEYGNFVNLERRFDDR
notes: Lacks the N-globe and keeps an intact α-hairpin; Forms hexamers in gel filtration
B6: G40P N-terminal deletion mutant ΔN112 (enzyme)
chain: AISIAQQIIENVNESDDGPVKPIQEAVSELMEIEASGTDDDDGSIDEALVTVYEEIESADGNITGVPSGFTELDRMTYGYKRRNFVLIAARPSMGKTAFALKQAKNMSDNDDVVNLHSLEMGKKENIKRLIVTAGSINAQKIKAARRDFASEDWGKLSMAIGEISNSNINIFDKAGQSVNYIWSKTRQTKRKNPGKRVIVMIDYLQLLEPAKANDSRTNQISQISRDLKKMARELDVVVIALSQLSRQVEQRQDKRPMLSDLRESGQLEQDADIIEFLYRDDYYDKESESKNIVEVIIAKHRDGPVGTVSLAFIKEYGNFVNLERRFDDR
notes: as for B3
B7: G40P N-terminal deletion mutant ΔN129 (enzyme)
chain: GPVKPIQEAVSELMEIEASGTDDDDGSIDEALVTVYEEIESADGNITGVPSGFTELDRMTYGYKRRNFVLIAARPSMGKTAFALKQAKNMSDNDDVVNLHSLEMGKKENIKRLIVTAGSINAQKIKAARRDFASEDWGKLSMAIGEISNSNINIFDKAGQSVNYIWSKTRQTKRKNPGKRVIVMIDYLQLLEPAKANDSRTNQISQISRDLKKMARELDVVVIALSQLSRQVEQRQDKRPMLSDLRESGQLEQDADIIEFLYRDDYYDKESESKNIVEVIIAKHRDGPVGTVSLAFIKEYGNFVNLERRFDDR
notes: Forms hexamers in gel filtration; also called G40P-Δ129; G40P truncated monomer

Assays:
[1] = molecular target: G40P point mutant mt4
[2] = molecular target: T2, B. subtilis DnaG primase (Bacillus subtilis, UniProt P05096); assay: Native gel shift assay of primase binding; details: native gel shift with B. subtilis DnaG primase
T2 construct: GST (N); made in house; host or cells: E. coli
Description: (§1) Interactions between G40P and B. subtilis DnaG primase were examined using a native gel shift assay. 10 ug of various G40P constructs were mixed with 10 ug primase in a buffer containing 25 mM TrisHCl pH 8.0, 50 mM NaCl, 5 mM MgCl2, and 1 mM ATP-γ-S and incubated for 30 minutes on ice. The protein mixtures were then analyzed by 6% polyacrymamide native gel electrophoresis at 150 voltage for one hour at 4 degrees C. The gel was stained by Coomassie blue for detection.

[3] = molecular target: T1, B. subtilis DnaG primase; assay: native gel shift assay, 10 ug G40P construct with 10 ug primase
Excerpt: G40P/DnaB replicative helicases bind DnaG primase at the replication fork, this interaction is important for coordinating DNA unwinding by the helicase with RNA primer synthesis by the primase. We investigated the requirement of N-terminal domain of G40P in primase binding using the N-terminal deletions. […] We next examined if the isolated N-terminal domain of G40P can bind primase. The two constructs containing only the N-terminal α-hairpin and N-globe domains (N149 and N171) had no detectable primase binding in native gel shift assays (FIGS. 4d and 11). Both constructs behaved like monomers in gel filtration (data not shown).
as §1, with “MgCl₂,” for “MgCl2,”

[4] = test system: 32P-labeled 60-base oligonucleotide annealed to circular M13mp18 ssDNA; assay: Helicase assay; format: biochemical; details: for helicase activity (in words): compared with wt G40P
Description: The substrate for the helicase assay was prepared by annealing a ^32P-labeled ssDNA (a 60-base oligonucleotide) to the circular M13mp18 ssDNA. This oligonucleotide has 35 nucleotides annealed to the M13 DNA, leaving a 25-nucleotide 5′ overhang. The substrate DNA was incubated with various amounts of different G40P mutant proteins in the presence or absence of primase at 37 degrees C. for 30 minutes in a buffer containing 20 mM Tris-HCl (pH 7.5), 5 mM ATP, 10 mM MgCl2, 1 mM DTT, and 50 mM NaCl. The reaction was terminated by adding a stop solution containing 100 mM EDTA, 0.5% SDS, and 50% glycerol. Samples were analyzed on a 12% native polyacrylamide gel in 1 M Tris/borate/EDTA running buffer. The unwinding of the substrate DNA was detected by autoradiography.

| Molecule | primase-mediated stimulation of the ATPase and helicase activity of G40P [1] | primase binding [2] | binding result [3] | helicase activity (in words) [4] | helicase activity retained, of the wt activity ([4]; absence of primase, relative to full-length (wt) G40P) |
| --- | --- | --- | --- | --- | --- |
| B1 | mt4 displayed much reduced primase-mediated stimulation of the ATPase and helicase activity of G40P |  |  |  |  |
| B2 |  | no detectable primase binding | no binding |  |  |
| B3 |  | devoid of primase binding | no binding | no detectable helicase activity |  |
| B4 |  | no detectable primase binding | no binding |  |  |
| B5 |  | devoid of primase binding | no binding |  | ~66% |
| B6 |  | devoid of primase binding | no binding | no detectable helicase activity |  |
| B7 |  | devoid of primase binding | no binding | no detectable helicase activity |  |
